This is an account of results in patent publication US20190127468A1.

Test [1] has as its target human CTLA4 in cells of Ctla4 h/h knock-in mice (human) (UniProt P16410). Briefly: flow cytometry, intracellular staining of CTLA4 in spleen cells of Ctla4 h/h mice, gated on CD3+CD4+. In general terms: In flow cytometry, cells or beads pass a laser one at a time.
For test [2], the target named is mouse CTLA4 in cells of Ctla4 m/m (WT) mice (mouse) (UniProt P09793). Briefly: flow cytometry, intracellular staining of CTLA4 in spleen cells of Ctla4 m/m mice, gated on CD3+CD4+.
Test [3] deals with mouse CTLA4-Fc fusion protein (mouse) (UniProt P09793). Put plainly: blocking ELISA: plate B7-1, biotinylated mouse CTLA4-Fc with the antibody, HRP-streptavidin; blocked ligand B7-1. A general note: In an ELISA, binding on a coated surface is turned into a signal by an enzyme label.
For test [4] the target is unchanged. Put plainly: blocking ELISA: plate B7-2, biotinylated mouse CTLA4-Fc with the antibody, HRP-streptavidin; blocked ligand B7-2.
Test [5] has as its target mouse CTLA4 in cells of Ctla4 m/m (WT) mice (mouse) (UniProt P09793). Briefly: cell-based or functional assay.
Test [6] deals with Control IgG1-Fc (human) [IgG part: P01857]. Briefly: ELISA on coated target; binder 10 ng/ml.
For test [7] the target is unchanged. Briefly: ELISA on coated target; binder 100 ng/ml.
Test [8] has the same target. Briefly: ELISA on coated target; binder 1000 ng/ml.
For test [9] the target is unchanged. Briefly: ELISA on coated target; binder 0 (background).
Test [10] addresses CTLA-4Fc mutant M11 (AA103-106, YLGI>fcGm) (human). Put plainly: ELISA, plate-coated CTLA-4Fc protein, biotinylated B7-1 Ig at 1 ug/ml, HRP-streptavidin.
For test [11] the target is unchanged. Put plainly: ELISA, plate-coated CTLA-4Fc protein, biotinylated B7-1 Ig at 10 ng/ml, HRP-streptavidin.
Test [12] shares this target. Put plainly: ELISA, plate-coated CTLA-4Fc protein, biotinylated B7-1 Ig at 0 (blank), HRP-streptavidin.
For test [13] the target is unchanged. Put plainly: ELISA, plate-coated CTLA-4Fc protein, biotinylated B7-1 Ig at 100 ng/ml, HRP-streptavidin.

“And” between values parts separate entries of the source, which are not always exact repeats. Equal entries are not always repeated.

Sequence of CTLA-4Fc mutant M11 (AA103-106, YLGI>fcGm) (human) (chain, as listed by the source mutant limits assumed): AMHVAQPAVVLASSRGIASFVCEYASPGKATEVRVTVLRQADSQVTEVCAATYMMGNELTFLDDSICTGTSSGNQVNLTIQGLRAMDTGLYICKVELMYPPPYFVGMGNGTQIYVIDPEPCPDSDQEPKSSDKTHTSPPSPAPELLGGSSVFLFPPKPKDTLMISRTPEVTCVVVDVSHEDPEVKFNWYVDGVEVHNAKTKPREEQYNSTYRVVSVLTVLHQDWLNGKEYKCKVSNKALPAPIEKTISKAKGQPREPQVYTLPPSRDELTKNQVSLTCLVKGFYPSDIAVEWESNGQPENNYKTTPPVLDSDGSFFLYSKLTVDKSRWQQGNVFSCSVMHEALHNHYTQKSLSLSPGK
Sequence of human CTLA4 in cells of Ctla4 h/h knock-in mice (human) (P16410 36-223): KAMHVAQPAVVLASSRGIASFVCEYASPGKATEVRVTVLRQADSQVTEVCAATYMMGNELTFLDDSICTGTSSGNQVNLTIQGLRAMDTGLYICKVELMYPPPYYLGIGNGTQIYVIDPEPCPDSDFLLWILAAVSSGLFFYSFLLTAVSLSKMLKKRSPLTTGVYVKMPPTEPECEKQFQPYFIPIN
Sequence of anti-mouse CTLA4 mAb 9D9 (antibody) (light): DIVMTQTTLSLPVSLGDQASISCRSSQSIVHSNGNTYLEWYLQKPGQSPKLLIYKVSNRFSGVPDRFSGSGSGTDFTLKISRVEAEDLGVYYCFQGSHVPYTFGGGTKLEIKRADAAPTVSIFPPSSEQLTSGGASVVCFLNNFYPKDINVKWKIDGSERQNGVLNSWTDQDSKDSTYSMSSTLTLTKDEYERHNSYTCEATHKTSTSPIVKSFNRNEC
Sequence of anti-mouse CTLA4 mAb 9D9 (antibody) (heavy): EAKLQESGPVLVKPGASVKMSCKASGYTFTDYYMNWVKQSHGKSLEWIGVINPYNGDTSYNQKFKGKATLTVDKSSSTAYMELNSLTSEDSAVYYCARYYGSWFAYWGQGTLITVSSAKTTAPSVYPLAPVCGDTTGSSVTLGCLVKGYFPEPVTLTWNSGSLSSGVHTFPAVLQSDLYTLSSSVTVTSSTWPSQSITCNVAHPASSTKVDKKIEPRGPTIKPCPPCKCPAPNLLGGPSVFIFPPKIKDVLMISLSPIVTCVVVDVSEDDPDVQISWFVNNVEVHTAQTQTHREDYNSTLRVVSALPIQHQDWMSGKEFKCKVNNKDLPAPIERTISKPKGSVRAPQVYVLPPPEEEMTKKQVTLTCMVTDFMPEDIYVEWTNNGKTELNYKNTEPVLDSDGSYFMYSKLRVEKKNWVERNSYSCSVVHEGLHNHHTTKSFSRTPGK

With anti-mouse CTLA4 mAb 4F10 (antibody), the results for the number over the gate (FoxP3-positive, 4F10-stained) among CD3+CD4+ splenocytes in [1] and in test [2] were 0.107 and 9.52, respectively. Also, the values for the IC50 (read off the curve) in test [3] and in test [4] were 1 µg/mL and 0.3 µg/mL, respectively.

In the case of anti-mouse CTLA4 mAb 9D9 (antibody), in [5], the B7-1 level on CD11c hi DC of WT mice 24 h after 500 µg antibody was 15%.

On to chimeric L3D10 antibody, for which the OD450 in test [6] was 0.201 OD and 0.182 OD; in test [7] it was 0.315 OD and 0.326 OD; in [8], 1.39 OD and 1.48 OD; in [9], 0.198 OD and 0.184 OD.

With “human B7-1 Fc fusion protein (from UniProt P33681 35-242)”, the OD450 was 3.05 OD450 and 3.16 OD450 in test [10]; 0.22 OD450 and 0.217 OD450 in [11]; 0.174 OD450 and 0.163 OD450 in test [12]; 0.884 OD450 and 1.04 OD450 in [13].
